Source: patent US20250352661A1 (MYTHIC THERAPEUTICS, published 2025)

B1: MYT9508 (antibody, V domains shown)
VH: EVQLVESGGGLVQPGGSLRLSCTASGFSFSSSHWICWVRQAPGKGLEWVGCIYAGSIGSTYYASWAKGRFTISRDTSKNTVYLQMNSLRAEDTAVYYCARAPNDIYNYYFNLWGQGTLVTVSS
VL: EIVMTQSPSTLSASVGDRVIITCQDSENIYNYLAWYQQKPGKAPKLLIYYASTLASGVPSRFSGSGSGAEFTLTISSLQPDDFATYYCQSGYVSKSSTFGQGTKLTVL
notes: also called hu29F1 VL A25D
B2: MYT9509 (antibody, V domains shown)
VH: EVQLVESGGGLVQPGGSLRLSCTASGFSFSSSHWICWVRQAPGKGLEWVGCIYAGSIGSTYYASWAKGRFTISRDTSKNTVYLQMNSLRAEDTAVYYCARAPNDIYNYYFNLWGQGTLVTVSS
VL: EIVMTQSPSTLSASVGDRVIITCQADENIYNYLAWYQQKPGKAPKLLIYYASTLASGVPSRFSGSGSGAEFTLTISSLQPDDFATYYCQSGYVSKSSTFGQGTKLTVL
notes: Humanized 29F1 with VL S26D; captured by anti-human Fc sensor
B3: MYT9524 (antibody, V domains shown)
VH: EVQLVESGGGLVQPGGSLRLSCTASGFSFSSSHWICWVRQAPGKGLEWVGCIYAGSIGSTYYASWAKGRFTISRDTSKNTVYLQMNSLRAEDTAVYYCARAPNDIYNYYFNLWGQGTLVTVSS
VL: EIVMTQSPSTLSASVGDRVIITCQASENIYNYLAWYQQKPGKAPKLLIYYASTLADGVPSRFSGSGSGAEFTLTISSLQPDDFATYYCQSGYVSKSSTFGQGTKLTVL
notes: Humanized 29F1 with VL S56D; captured by anti-human Fc sensor
B4: MYT9520 (antibody, V domains shown)
VH: EVQLVESGGGLVQPGGSLRLSCTASGFSFSSSHWICWVRQAPGKGLEWVGCIYAGSIGSTYYASWAKGRFTISRDTSKNTVYLQMNSLRAEDTAVYYCARAPNDIYNYYFNLWGQGTLVTVSS
VL: EIVMTQSPSTLSASVGDRVIITCQASENIYNYLAWYQQKPGKAPKLLIYYADTLASGVPSRFSGSGSGAEFTLTISSLQPDDFATYYCQSGYVSKSSTFGQGTKLTVL
notes: Humanized 29F1 with VL S52D; captured by anti-human Fc sensor
B5: MYT9519 (antibody, V domains shown)
VH: EVQLVESGGGLVQPGGSLRLSCTASGFSFSSSHWICWVRQAPGKGLEWVGCIYAGSIGSTYYASWAKGRFTISRDTSKNTVYLQMNSLRAEDTAVYYCARAPNDIYNYYFNLWGQGTLVTVSS
VL: EIVMTQSPSTLSASVGDRVIITCQASENIYNYLAWYQQKPGKAPKLLIYYDSTLASGVPSRFSGSGSGAEFTLTISSLQPDDFATYYCQSGYVSKSSTFGQGTKLTVL
notes: also called hu29F1 VL A51D
B6: MYT9516 (antibody, V domains shown)
VH: EVQLVESGGGLVQPGGSLRLSCTASGFSFSSSHWICWVRQAPGKGLEWVGCIYAGSIGSTYYASWAKGRFTISRDTSKNTVYLQMNSLRAEDTAVYYCARAPNDIYNYYFNLWGQGTLVTVSS
VL: EIVMTQSPSTLSASVGDRVIITCQASENIYNYDAWYQQKPGKAPKLLIYYASTLASGVPSRFSGSGSGAEFTLTISSLQPDDFATYYCQSGYVSKSSTFGQGTKLTVL
notes: also called hu29F1 VL L33D
B7: MYT9510 (antibody, V domains shown)
VH: EVQLVESGGGLVQPGGSLRLSCTASGFSFSSSHWICWVRQAPGKGLEWVGCIYAGSIGSTYYASWAKGRFTISRDTSKNTVYLQMNSLRAEDTAVYYCARAPNDIYNYYFNLWGQGTLVTVSS
VL: EIVMTQSPSTLSASVGDRVIITCQASDNIYNYLAWYQQKPGKAPKLLIYYASTLASGVPSRFSGSGSGAEFTLTISSLQPDDFATYYCQSGYVSKSSTFGQGTKLTVL
notes: Humanized 29F1 with VL E27D; captured by anti-human Fc sensor
B8: MYT9514 (antibody, V domains shown)
VH: EVQLVESGGGLVQPGGSLRLSCTASGFSFSSSHWICWVRQAPGKGLEWVGCIYAGSIGSTYYASWAKGRFTISRDTSKNTVYLQMNSLRAEDTAVYYCARAPNDIYNYYFNLWGQGTLVTVSS
VL: EIVMTQSPSTLSASVGDRVIITCQASENIYDYLAWYQQKPGKAPKLLIYYASTLASGVPSRFSGSGSGAEFTLTISSLQPDDFATYYCQSGYVSKSSTFGQGTKLTVL
notes: Humanized 29F1 with VL N31D; captured by anti-human Fc sensor
B9: MYT9511 (antibody, V domains shown)
VH: EVQLVESGGGLVQPGGSLRLSCTASGFSFSSSHWICWVRQAPGKGLEWVGCIYAGSIGSTYYASWAKGRFTISRDTSKNTVYLQMNSLRAEDTAVYYCARAPNDIYNYYFNLWGQGTLVTVSS
VL: EIVMTQSPSTLSASVGDRVIITCQASEDIYNYLAWYQQKPGKAPKLLIYYASTLASGVPSRFSGSGSGAEFTLTISSLQPDDFATYYCQSGYVSKSSTFGQGTKLTVL
notes: Humanized 29F1 with VL N28D; captured by anti-human Fc sensor
B10: MYT9525 (antibody, V domains shown)
VH: EVQLVESGGGLVQPGGSLRLSCTASGFSFSSSHWICWVRQAPGKGLEWVGCIYAGSIGSTYYASWAKGRFTISRDTSKNTVYLQMNSLRAEDTAVYYCARAPNDIYNYYFNLWGQGTLVTVSS
VL: EIVMTQSPSTLSASVGDRVIITCQASENIYNYLAWYQQKPGKAPKLLIYYASTLASGVPSRFSGSGSGAEFTLTISSLQPDDFATYYCDSGYVSKSSTFGQGTKLTVL
notes: also called hu29F1 VL Q89D
B11: MYT9530 (antibody, V domains shown)
VH: EVQLVESGGGLVQPGGSLRLSCTASGFSFSSSHWICWVRQAPGKGLEWVGCIYAGSIGSTYYASWAKGRFTISRDTSKNTVYLQMNSLRAEDTAVYYCARAPNDIYNYYFNLWGQGTLVTVSS
VL: EIVMTQSPSTLSASVGDRVIITCQASENIYNYLAWYQQKPGKAPKLLIYYASTLASGVPSRFSGSGSGAEFTLTISSLQPDDFATYYCQSGYVDKSSTFGQGTKLTVL
notes: Humanized 29F1 with VL S94D; captured by anti-human Fc sensor
B12: MYT9522 (antibody, V domains shown)
VH: EVQLVESGGGLVQPGGSLRLSCTASGFSFSSSHWICWVRQAPGKGLEWVGCIYAGSIGSTYYASWAKGRFTISRDTSKNTVYLQMNSLRAEDTAVYYCARAPNDIYNYYFNLWGQGTLVTVSS
VL: EIVMTQSPSTLSASVGDRVIITCQASENIYNYLAWYQQKPGKAPKLLIYYASTDASGVPSRFSGSGSGAEFTLTISSLQPDDFATYYCQSGYVSKSSTFGQGTKLTVL
notes: Humanized 29F1 with VL L54D; captured by anti-human Fc sensor
B13: MYT9526 (antibody, V domains shown)
VH: EVQLVESGGGLVQPGGSLRLSCTASGFSFSSSHWICWVRQAPGKGLEWVGCIYAGSIGSTYYASWAKGRFTISRDTSKNTVYLQMNSLRAEDTAVYYCARAPNDIYNYYFNLWGQGTLVTVSS
VL: EIVMTQSPSTLSASVGDRVIITCQASENIYNYLAWYQQKPGKAPKLLIYYASTLASGVPSRFSGSGSGAEFTLTISSLQPDDFATYYCQDGYVSKSSTFGQGTKLTVL
notes: also called hu29F1 VL S90D
B14: MYT9753 (antibody, V domains shown)
VH: EVQLVESGGGLVQPGGSLRLSCTASGFSFSSSHWICWVRQAPGKGLEWVGCIYAGSIGSTYYASWAKGRFTISRDTSKNTVYLQMNSLRAEDTAVYYCARAPNDIYNYYFNLWGQGTLVTVSS
VL: EIVMTQSPSTLSASVGDRVIITCQASENIYNYLAWYQQKPGKAPKLLIYYASTLASGVPSRFSGSGSGAEFTLTISSLQPDDFATYYCQSGYVSKSETFGQGTKLTVL
notes: also called hu29F1 VL S97E
B15: MYT9754 (antibody, V domains shown)
VH: EVQLVESGGGLVQPGGSLRLSCTASGFSFSSSHWICWVRQAPGKGLEWVGCIYAGSIGSTYYASWAKGRFTISRDTSKNTVYLQMNSLRAEDTAVYYCARAPNDIYNYYFNLWGQGTLVTVSS
VL: EIVMTQSPSTLSASVGDRVIITCQASENIYNYLAWYQQKPGKAPKLLIYYASTLASGVPSRFSGSGSGAEFTLTISSLQPDDFATYYCQSGYVSKSSEFGQGTKLTVL
notes: also called hu29F1 VL T98E

Biological target: T1, Human LRRC15 Protein, His Tag, Acro Biosystems (human, UniProt Q8TF66 22-538, limits assumed)
T1 construct: not shown: His tag
T1 sequence (looked up): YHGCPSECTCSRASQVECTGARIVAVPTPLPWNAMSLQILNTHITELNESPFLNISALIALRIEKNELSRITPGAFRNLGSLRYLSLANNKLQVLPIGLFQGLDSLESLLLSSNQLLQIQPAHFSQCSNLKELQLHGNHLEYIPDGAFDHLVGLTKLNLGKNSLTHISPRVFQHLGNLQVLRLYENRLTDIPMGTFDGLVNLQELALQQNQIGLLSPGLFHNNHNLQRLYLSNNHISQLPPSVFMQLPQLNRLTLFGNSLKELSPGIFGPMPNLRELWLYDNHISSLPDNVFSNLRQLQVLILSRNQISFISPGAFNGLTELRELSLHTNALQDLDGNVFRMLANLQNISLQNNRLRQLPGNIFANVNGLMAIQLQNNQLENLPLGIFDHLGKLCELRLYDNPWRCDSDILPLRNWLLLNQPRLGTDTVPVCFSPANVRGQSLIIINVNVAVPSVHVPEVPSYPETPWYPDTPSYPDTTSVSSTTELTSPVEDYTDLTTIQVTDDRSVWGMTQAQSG
Test: BLI; dissociation pH 7.4 black, pH 5.4 grey [D00022 FIG. 5B]
Procedure: The resulting diluted supernatants were then captured on an anti-human Fc sensor (Forte Bio). A baseline was established using 1×PBST (50 mM Potassium Phosphate Buffer+150 mM NaCl+0.05% Tween 20) pH 7.4, and the […] was associated with 50 nM of LRRC15 (Human LRRC15 Protein, His Tag, Acro Biosystems) in 1×PBST pH 7.4 for 120 sec to generate an association curve. In the dissociation phase, the antibody-antigen complex on the sensor was exposed to 1×PBST pH 7.4 or pH 5.4, for 300 sec. Association and dissociation phase curves were examined for the starting ABPC antibody (with no substitutions) and each corresponding antibody variant at pH 5.4 and pH 7.4 to inform on two criteria: a) enhanced dissociation (i.e., higher koff values) at pH 5.4 due to histidine substitution compared to the starting ABPC, (with no substitutions), and b) reduced dissociation at pH 7.4 (i.e., lower koff values) compared to pH 5.4 in the antibody variant itself and with the starting ABPC (with no substitutions).
Briefly, CDRs in the 15G7 light chain were identified using the methods described in Example 9, and for each CDR, residues falling under either or both Kabat and IMGT CDR definitions were called as CDR residues. To generate pH-dependent sequence variants, individual amino acid residues within the light chain CDRs were systematically substituted with a histidine, one at a time (rabbit, MYT6122-6151). Desirable mutations were transferred to a humanized framework MYT8413-8487). After allowing for four days of protein expression, cell culture supernatants were collected, quantified by SDS-PAGE analysis, and the pH dependence of the variant was evaluated using biolayer interferometry (BLI) on an Octet RED 96e instrument (as described in Example 9). […]

Binding result, binds:
B1, B2, B3, B4, B5, B6, B7, B8, B9, B10, B11, B12, B13

Biological target: T1, Human LRRC15 Protein, His Tag, Acro …
Test: BLI; dissociation pH 7.4 black, pH 5.4 grey [D00028 FIG. 7B]

Binding result, binds:
B14, B15
